The DeepSol protein solubility set

test: soluble on expression in E. coli; label from the status in PepcDB or PDB records

Sequence	soluble on expression in E. coli
MKKRYKNPEKSGSCGNFIQAIKMTDKVQPLESLSKKPEEPKIVVNLRRIKRKIMVMSGKGGVGKSTVAANLAVGLALRGHRVGLLDCDIHGPTVPTIFGLESARPGVSEEGILPIEVLPNLSVMSIGFLLENKDSPIIWRGPAKMGAIKQFLEEVFWGALDFLIIDLPPGTGDEPLSVAQLIPNCDGSVLVTTPQDVALISVRKSITFSEKLNVPIIGLVDNMHGLICPHCGKPIEVFGSGGVEKASKDFNIPILARLPIEPGVAEMEDRGTVVQDQLKHGTEWQKNFDNVVDAVEKILEKELEHHHHHH	soluble
MPCVQAQYGSSPQGASPASQSYSYHSSGEYSSDFLTPEFVKFSMDLTNTEITATTSLPSFSTFMDNYSTGYDVKPPCLYQMPLSGQQSSIKVEDIQMHNYQQHSHLPPQSEEMMPHSGSVYYKPSSPPTPTTPGFQVQHSPMWDDPGSLHNFHQNYVATTHMIEQRKTPVSRLSLFSFKQSPPGTPVSSCQMRFDGPLHVPMNPEPAGSHHVVDGQTFAVPNPIRKPASMGFPGLQIGHASQLLDTQVPSPPSRGSPSNEGLCAVCGDNAACQHYGVRTCEGCKGFFKRTVQKNAKYVCLANKNCPVDKRRRNRCQYCRFQKCLAVGMVKEVVRTDSLKGRRGRLPSKPKSPQEPSPPSPPVSLISALVRAHVDSNPAMTSLDYSRFQANPDYQMSGDDTQHIQQFYDLLTGSMEIIRGWAEKIPGFADLPKADQDLLFESAFLELFVLRLAYRSNPVEGKLIFCNGVVLHRLQCVRGFGEWIDSIVEFSSNLQNMNIDISAFSCIAALAMVTERHGLKEPKRVEELQNKIVNCLKDHVTFNNGGLNRPNYLSKLLGKLPELRTLCTQGLQRIFYLKLEDLVPPPAIIDKLFLDTLPF	soluble
MAHHHHHHMRAIQTLFIHSDKRVFLFPNTSNRTKYPSLITFPKIVLYSTPEAKRYRCVQKYLSTDFSSCSDNPHEILGRILRVPQSRSSMRKMLFTIPGIDPIQGILNGSRVCNELIRIKDVTWNRPHLIHAFFDHLPVFRFFLRSLVTLHPRTHRLHIHLVRAIHDDSRRSFLFLSFIIVAHAWR	not soluble
MPNIKIFSGSSHQDLSQKIADRLGLELGKVVTKKFSNQETCVEIGESVRGEDVYIVQSGCGEINDNLMELLIMINACKIASASRVTAVIPCFPYARQDKKDKSRAPISAKLVANMLSVAGADHIITMDLHASQIQGFFDIPVDNLYAEPAVLKWIRENISEWRNCTIVSPDAGGAKRVTSIADRLNVDFALIHKERKKANEVDRMVLVGDVKDRVAILVDDMADTCGTICHAADKLLSAGATRVYAILTHGIFSGPAISRINNACFEAVVVTNTIPQEDKMKHCSKIQVIDISMILAEAIRRTHNGESVSYLFSHVPLLEHHHHHH	soluble
MGSDKIHHHHHHMKKIIIVSCLMSGVLNFGYSITTESIPTCSSFLSKLLSTAKSDTLSKVKLENCTFEEFKNNYDKDKFPVEFRNNQEEKSFYRHLKERDNYAGISNLYDMWKWVRFNRGFLEQQNEKLFHVYDKLNEVGINPESLDSMSYLNLKGINENINALTESINPSVEAIKYLLPDFEKYVAAYEKLAKEGDSLSYSDFKKASGRGATTANIQQIDQRILHQFRKEMHMNTANTAAMSSLNFGNGYGVSVGAAIGGHKGQYSLALGTAYTDYQTQVNVKIALPVKQPKPSNITYGVGFVYNFQ	not soluble
MKFAVSSKGDQVSDTLKSKIQAYLLDFDMELDENEPEIVISVGGDGTLLYAFHRYSDRLDKTAFVGVHTGHLGFYADWVPHEIEKLVLAIAKTPYHTVEYPLLEVIVTYHENEREERYLALNECTIKSIEGSLVADVEIKGQLFETFRGDGLCLSTPSGSTAYNKALGGAIIHPSIRAIQLAEMASINNRVFRTVGSPLLLPSHHDCMIKPRNEVDFQVTIDHLTLLHKDVKSIRCQVASEKVRFARFRPFPFWKRVQDSFIGKGELEHHHHHH	soluble
MSLKSHVRSFKTYIRDEIIKKGGWVNAHAHADRAFTMTPEKIGIYHSSNLQQKWDLVDEVKRTSSVDDYYARFCQSIELMISQGVTAFGTFVDIDPICEDRAIIAAHKAREVYKHDIILKFANQTLKGVIEPTARKWFDIGAEMVDMIGGLPYRDELDYGRGLEAMDILLDKAKSLGIMCHVHVDQFNNPSEKETEQLCDKTIEHGMEGRVVGIHGISIGSHSKEYRYKLYEKMRKAKMMMIACPMAWIDSNRKEDLMPFHNALTPADEMIPEGITVALGTDNICDYMVPLCEGDLWQELSLLAAGCRFPHLDEMVNIASINGRKVLGLELIEGHHHHHH	soluble
VAIRNFDISKISGEWYSIFLASDVKEKIEENGSMRVFVDVIRALDNSSLYAEYQTKVNGECTEFPMVFDKTEEDGVYSLNYDGYNVFRISEFENDEHIILYLVNFDKDRPFQLFEFYAREPDVSPEIKEEFVKIVQKRGIVKENIIDLTKIDRCFQLRG	soluble
MSLNKPFERRSLLRGAGALTAASLAPWAAGCAADDDDALTFFFAANPDELRPRMRVVNEFQRRYPDIKVRALLSGPGVMQQLATFCAGGKCPDVLMAWELTYAELADRGVLLDLNTLLARDQAFAAELKSDSIGALYETFTFNGGQYAFPEQWSGNFLFYNKQLFDDAGVPPPPGSWERPWSFAEFLDAAQALTKQGRSGRDRQWGFVNAWVSFYAAGLFAMNNGVPWSVPRMNPTHLNFDHDGFLEAVQFYADLTNKHKVAPSAAEQQSMSTADLFSVGKAGIALAGHWRYQTFDRADGLDFDVAPLPIGPRGRAACSDIGVTGLAIAATSRRKDQAWEFVKFATGPVGQALIGESRLFVPVLRSAINSHGFANAHRRVGNLAVLSEGPAYSEGLPVTPAWEKIAALMDRYFGPVLRGSRPATSLTGLSQAVDEVLRNEGHHHHHH	not soluble
GPGSMVVASCPGKVLILGGYLIVEEPNVGISVGTTARFVTRVASWKKCSDGKCRVHIVSSQFNKEFTFECAAEEDSDSTIKIVQLEGAPSPFLFYGILYSVAGALLFGGDIFRDVTLELLADNDFYSQRNYLESQGKPVTAANLRLIPRYTPLLGEVSKTGLGSSAAMTTSVVACLLQLYVFDSKKNNATESVERAPELPLRLEDVTEFIHRISQVAHCVAQGKVGSGFDVYTATFGTCVYRRFSARVLEKLVKGNEPPKRVTIPLLRECVETDEVWVQRIPFRLPTGLQLLLGDVHKGGTETPGMVSKVMSWRRSVTTDPNSLWERLRMSNEKYVEALQGLIKQSQEAPVAYTEAVKNLKSVVLAKHNPSTEAERLWVEAASVASTSRRYLREMGEAAQVQIEPPELTSLLDATCSIPGVFAVGCPGAGGYDAVFALVLGEEVCSAVERFWECYNDLQVCPLLVRGDANGLVLD	not soluble
MGRFPSWVLVADWPAPPGVMVLSTLRGGPGVSVAPFDRLNLGNCSGVAGDAPVCVERNRSRLVEMLGLPSVPHWLRQVHGVEVLRVDALLQSIARVVEPTADAAVTSVVGAVLAILTADCLPVVLAAVDGSEIGVVHAGWRGLADDVLGRTVAALRTSPEYLQAWLGPAAGPQAYEVGVDVYAAFVERDSGAACAFSVTRPGHWYVDLYALARQRLMRAGLSAVSIYGGGLCTISDPQRFFSHRRDRRSGRFATLAWIGC	soluble
MRERTEARRRRIEEVLRRRQPDLTVLLENVHKPHNLSAILRTCDAVGVLEAHAVNPTGGVPTFNETSGGSHKWVYLRVHPDLHEAFRFLKERGFTVYATALREDARDFREVDYTKPTAVLFGAEKWGVSEEALALADGAIKIPMLGMVQSLNVSVAAAVILFEAQRQRLKAGLYDRPRLDPELYQKVLADWLRK	soluble
MRTIVFDVDDTLYDQQQPFRNAMTKIFPNVATEDMHELYLRFRHHSDETFPKVLANEWSLDFMRFFRMNETLKDLNYPGISQEEGKIFQQVYEEELDNITMHPEVTKLLDTLQEKEIPMGIITNGPTDHQFKKVKQLNIEKWVPSQNIIISQSTGFQKPEKEIFDLACNQFCMEPEHTLYVGDSYDNDIVGARNGGWHSLWFNHRSRELPSCQPASHLAEVTCFTELCPTVEKLFNL	not soluble
MRLFLLLLSLLLISITTAFALDKPDGSNSIEDQTALFFGKDDRTAVTNSRQWPWEAIGQVETASGNPCTATLISPRLVLTAGHCVLTPPGNIDQAVALRFISDKGHWKYQITDLKTRVDAKLGQKLKADGDGWIVPPAAAAYDFALIQLTNAAPIPIKPLPLWEGTANELTKALKLVNRKVTQAGYPLDNLNTLYKHEDCLVTGWAQQGVLAHQCDTLPGDSGSPLLLKNGNSWSLIAIQSSAPAAKERYLADNRALSVTAINNRLKKLVNKIADTTQ	not soluble
